Assay results as given in patent US20250334594A1 (ELEDON PHARMACEUTICALS, published 2025).

Tests used:
[1] = target: recombinant human FcγRI (human) (UniProt P12314); assay: ELISA: antibody coated (2 µg/ml), recombinant human FcγRI titrated, mouse anti-CD64 + HRP anti-mouse IgG, A450
[2] = target: control protein CTLA4-IgG1 (UniProt P16410 38-161, limits assumed); assay: sandwich ELISA: protein coated (2 µg/ml), huCD40L titrated, biotinylated goat anti-CD40L polyclonal + streptavidin-HRP, A450
Sequence of control protein CTLA4-IgG1 (P16410 other isoform, or with tags, fused parts or gaps limits assumed): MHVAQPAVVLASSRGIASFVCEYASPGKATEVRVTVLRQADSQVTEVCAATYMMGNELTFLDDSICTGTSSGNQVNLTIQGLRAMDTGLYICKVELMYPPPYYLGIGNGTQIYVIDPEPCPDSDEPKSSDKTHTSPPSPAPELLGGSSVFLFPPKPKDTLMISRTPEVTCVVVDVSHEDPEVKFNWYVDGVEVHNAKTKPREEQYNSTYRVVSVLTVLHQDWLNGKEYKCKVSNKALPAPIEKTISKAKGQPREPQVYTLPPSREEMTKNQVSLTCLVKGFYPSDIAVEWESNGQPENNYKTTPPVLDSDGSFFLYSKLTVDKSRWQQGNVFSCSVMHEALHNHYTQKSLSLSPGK
Procedure: All washes were performed using 3 washes of 250 μl of PBS. […] The plate was washed and then blocked with 2% bovine serum albumin/PBS for 1 hour at room temperature. The plate was washed and recombinant human CD40L protein (Santa Cruz Biotechnology, Santa Cruz, California, USA) was added to the plate titrated out by 2-fold dilution starting at 2000 ng/ml. After binding and washing, the bound CD40L protein was detected using 100 μl a biotinylated goat anti-human CD40L polyclonal antibody (200 ng/ml) and 100 μl a streptavidin-horseradish peroxidase conjugate at 100 ng/ml. Colorimetric detection was performed with the chromagen TMB (3,3′,5,5′-tetramethylbenzidine) and spectrophotometric analysis of absorption at 450 nm.

Sequence of recombinant human FcγRI (human) (P12314 16-288 limits assumed): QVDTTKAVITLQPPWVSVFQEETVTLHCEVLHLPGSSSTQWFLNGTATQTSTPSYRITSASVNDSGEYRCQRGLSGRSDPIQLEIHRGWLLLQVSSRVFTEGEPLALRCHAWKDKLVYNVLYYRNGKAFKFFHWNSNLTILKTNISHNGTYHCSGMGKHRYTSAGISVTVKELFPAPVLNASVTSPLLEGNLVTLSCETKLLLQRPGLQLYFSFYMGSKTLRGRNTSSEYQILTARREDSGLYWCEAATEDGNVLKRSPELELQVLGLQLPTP

EC50 (read off the curve) [1] | binding result [2] | Molecule
0.2 µg/mL | – | anti-CD40L antibody 5c8 (reference antibody)
– | no binding (tested: 2 micrograms/mL) | recombinant human CD40L protein (Santa Cruz Biotechnology) (ligand, UniProt P29965 113-261, looked up, Bought reagent; also called CD154) MQKGDQNPQIAAHVISEASSKTTSVLQWAEKGYYTMSNNLVTLENGKQLTVKRQGLYYIYAQVTFCSNREASSQAPFIASLCLKSPGRFERILLRAANTHSSAKPCGQQSIHLGGVFELQPGASVFVNVTDPSQVSHGTGFTSFGLLKL
